Experimental data taken from IntAct's records for PubMed 10854325.

B1: Interleukin-1 receptor-associated kinase 1 (Mus musculus), Q62406 (parent)
chain: MAGGPGPGEPVVPGAQHFLYEVPPWVMCRFYKVMDALEPADWCQFAALIVRDQTELRLCERSEQRTASVLWPWINRNARVADLVHILTHLQLLRARDIITAWHPPAPVVPPSTAAPRPSSISAGSEAGDWSPRKLQSSASTFLSPAFPGSQTHSESELLQVPLPVSLGPPLPSSAPSSTKSSPESPVSGLQRAHPSPFCWPFCEISQGTCNFSEELRIGEGGFGCVYRAVMRNTTYAVKRLKEEADLEWTMVKQSFLTEVEQLSRFRHPNIVDFAGYCAESGLYCLVYGFLPNGSLEDQLHLQTQACSPLSWPQRLDILLGTARAIQFLHQDSPSLIHGDIKSSNVLLDERLMPKLGDFGLARFSRFAGAKASQSSTVARTSTVRGTLAYLPEEYIKTGRLAVDTDTFSFGVVILETLAGQRAVRTQGAKTKYLKDLIEDEAEEAGVTLKSTQPTLWVGVATDAWAAPIAAQIYKKHLDSRPGPCPPQLGLALAQLACCCMHRRAKKRPPMTQVYKRLEGLQAGPPWELEVAGHGSPSPQENSYMSTTGSAQSGDEPWQPLVVTTRAPAQAAQQLQRSPNQPVESDESVPGLSATLHSWHLTPGSHPSPASFREASCTQGGTTRESSVRSSPGFQPTTMEGSPTGSSSLLSSEPPQIIINPARQKMVQKLALYEEGVLDSLQLLSSGFFPGLDLEPEKSQGPEESDEFQS

Variants of: B1
Conditions: with tolip_mouse Tollip

Variant | effect of a mutation on the interaction
T66A | decreasing interaction
